Experimental data as given in patent US20170066831A1 (Janssen / Centocor, published 2017).

How the values were obtained:
[1] = biological target: T1, human ST2L extracellular domain with C-terminal His6 tag (human, UniProt Q01638 19-328); assay: RLB ELISA: biotinylated IL-33 on coated huST2L-ECD, antibody titrated; tested as a hybridoma
T1 construct: also called huST2L-ECD; ST2L-ECD
T1 sequence: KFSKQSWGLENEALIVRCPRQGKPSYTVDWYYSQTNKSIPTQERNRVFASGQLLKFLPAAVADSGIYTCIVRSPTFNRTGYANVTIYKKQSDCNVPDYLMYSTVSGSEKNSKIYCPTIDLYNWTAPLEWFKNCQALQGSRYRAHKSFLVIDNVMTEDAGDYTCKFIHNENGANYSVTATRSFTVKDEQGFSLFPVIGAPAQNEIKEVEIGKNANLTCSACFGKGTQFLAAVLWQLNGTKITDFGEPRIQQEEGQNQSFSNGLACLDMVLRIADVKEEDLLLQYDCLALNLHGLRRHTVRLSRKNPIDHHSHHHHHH

[2] = biological target: T1, human ST2L extracellular domain with …; assay: MSD competition on coated ST2L-ECD; 30 nM sulfo-tag labeled C2244 Fab displaced by unlabeled competitor
Method: Competition binding assays were performed to evaluate different binding epitope groups for anti-ST2L mAbs. 5 μl (10 μg/ml) of ST2L-ECD protein was coated on MSD HighBind plate (Meso Scale Discovery, Gaithersburg, Md.) per well for 2 hr at room temperature. One-hundred and fifty microliters of 5% MSD Blocker A buffer (Meso Scale Discovery, Gaithersburg, Md.) was added to each well and incubated for 2 hr at room temperature. Plates were washed three times with 0.1 M HEPES buffer, pH 7.4, followed by the addition of the mixture of the MSD fluorescence dye (sulfo tag, NHS ester) labeled individual anti-ST2L antibody with different competitors. Labeled antibody, 10 or 30 nM, was incubated with increasing concentrations of competitor antibodies, from 1 nM to 2 or 5 μM, and then added to the designated wells in a volume of 25 μL mixture. After 2-hour incubation with gentle shaking at room temperature, plates were washed 3 times with 0.1M HEPES buffer (pH 7.4). MSD Read Buffer T was diluted with distilled water (4-fold) and dispensed at a volume of 150 μL/well and analyzed with a SECTOR Imager 6000.

[3] = biological target: T2, cynomolgus (Macaca fascicularis) ST2L extracellular domain with C-terminal His6 tag (Macaca fascicularis (cynomolgus), UniProt Q01638 19-321 (human entry)); assay: ProteOn SPR, mAb captured, ST2L-ECD in solution
T2 construct: also called cyno ST2L-ECD; cynoST2L-ECD
T2 chain: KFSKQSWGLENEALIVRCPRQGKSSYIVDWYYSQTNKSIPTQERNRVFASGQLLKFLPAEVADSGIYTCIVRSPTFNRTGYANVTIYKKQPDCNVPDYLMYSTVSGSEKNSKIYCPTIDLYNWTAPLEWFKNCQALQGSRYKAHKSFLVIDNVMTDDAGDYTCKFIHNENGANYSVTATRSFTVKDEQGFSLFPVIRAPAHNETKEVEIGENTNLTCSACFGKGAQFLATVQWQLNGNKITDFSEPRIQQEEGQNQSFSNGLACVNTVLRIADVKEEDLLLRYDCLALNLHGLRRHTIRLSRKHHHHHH
Method: (§1) The affinities were analyzed by ProteOn. The experiments were performed at 25° C. using ProteOn's PBS-T-E buffer (PBS, 0.005% P20 and 3 mM EDTA) as running buffer. […] Mab capture was followed by injection of ST2L-ECD from 0.024-15 nM (5-fold dilutions) for 4 min (200 μL at 50 μL/min). The dissociation was monitored for 30 minutes for all reaction. Regeneration was performed using two 15 sec pulses of 10 mM glycine pH1.5. The data was fitted to a 1:1 with baseline drift model.
(§2) Association rates for the samples are fast, the langmuir with mass transfer model was used for curve fitting and estimation of Affinity. All of the samples had faster off rates than the parental clone and control Mab. The difference in off rate was the primary contributor to the lower affinity of the HFA variants when compared to the parent antibody.

[4] = biological target: T1, human ST2L extracellular domain with …; assay: ProteOn SPR, mAb captured, ST2L-ECD in solution
Method: as §1, §2

[5] = biological target: T2, cynomolgus (Macaca fascicularis) ST2L …; assay: SPR, mAb captured, ST2L-ECD in solution
[6] = biological target: T1, human ST2L extracellular domain with …; assay: SPR, mAb captured, ST2L-ECD in solution
[7] = biological target: T3, human ST2L, full length, on cells (human, UniProt Q01638 19-556); assay: cell-based or functional assay
T3 sequence: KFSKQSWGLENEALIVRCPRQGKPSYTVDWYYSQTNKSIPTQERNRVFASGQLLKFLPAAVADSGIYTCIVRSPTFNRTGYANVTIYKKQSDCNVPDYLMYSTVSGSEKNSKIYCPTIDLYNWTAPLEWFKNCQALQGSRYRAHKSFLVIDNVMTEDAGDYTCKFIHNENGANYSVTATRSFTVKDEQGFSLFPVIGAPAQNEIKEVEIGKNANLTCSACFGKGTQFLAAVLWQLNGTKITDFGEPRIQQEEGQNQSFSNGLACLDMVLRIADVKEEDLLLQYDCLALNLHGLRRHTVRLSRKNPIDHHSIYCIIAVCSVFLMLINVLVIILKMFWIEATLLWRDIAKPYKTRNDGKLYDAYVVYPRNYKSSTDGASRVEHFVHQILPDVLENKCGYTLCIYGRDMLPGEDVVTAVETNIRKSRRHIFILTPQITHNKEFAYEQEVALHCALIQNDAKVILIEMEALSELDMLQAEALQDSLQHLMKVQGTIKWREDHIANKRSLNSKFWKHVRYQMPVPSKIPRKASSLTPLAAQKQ

[8] = biological target: T1, human ST2L extracellular domain with …; assay: Fab binding to ST2L, method not detailed
[9] = biological target: T1, human ST2L extracellular domain with …; assay: assayed for binding to human ST2L, method not detailed
[10] = biological target: T1, human ST2L extracellular domain with …; assay: immunosorbent assay with ECL detection, human-mouse domain-swap constructs
Method: (§3) Antibody binding to ST2L domain I, II and III was determined using standard capture ELISA assay using electrochemiluminescent detection format (Meso-Scale Discovery (MSD) technology). 10 μg/mL of each antibody was coated onto each well of an MSD HighBind plate (5 μL/well) for 2 hr at room temperature. […] The plate was covered with aluminum foil and incubated for 1 hr at room temperature with gentle shaking. The plate was then washed 3 times with HEPES wash buffer. MSD read buffer (150 μl) was added to each well, and the plate was then read using an MSD Sector Imager 6000.

[11] = biological target: T4, mouse ST2L extracellular domain (mouse, UniProt P14719 28-326); assay: as above
T4 construct: also called mouse ST2L-ECD; muST2L-ECD
T4 sequence: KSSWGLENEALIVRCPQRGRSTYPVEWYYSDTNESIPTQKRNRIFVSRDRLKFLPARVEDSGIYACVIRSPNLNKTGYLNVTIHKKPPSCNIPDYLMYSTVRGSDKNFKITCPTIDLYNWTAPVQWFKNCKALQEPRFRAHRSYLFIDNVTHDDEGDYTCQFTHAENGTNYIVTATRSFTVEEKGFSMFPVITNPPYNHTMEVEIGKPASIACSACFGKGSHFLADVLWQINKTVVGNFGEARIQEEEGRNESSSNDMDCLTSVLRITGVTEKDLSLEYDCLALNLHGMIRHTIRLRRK
Method: as §3

[12] = biological target: T1, human ST2L extracellular domain with …; assay: Fab binding to ST2L, method not detailed; parent C2494 Fab, without the D101aA substitution

B1: STLM62 (antibody, human IgG2, V domains shown)
VH: EVQLQQSVAELVRPGASVKLSCTASAFNIKDDYMHWVKQRPEQGLEWIGRIDPAIGNTEYAPKFQDKATMTADTSSNTAYLQLSSLTSEDTAVYYCALGDFYAMDYWGQGTSVTVSS
VL: ETTVTQSPASLSVATGEKVTIRCITNTDIDDVIHWYQQKPGEPPKLLISEGNTLRPGVPSRFSSSGYGTDFVFTIENTLSEDVADYYCLQSDNMLTFGAGTKLELK
notes: Mouse hybridoma C2494 cloned into human IgG2 background (STLM62); also called C2494
B1 was tested, and the IC50 [1] was 0.7 µg/mL, the “IC50 (read off the curve)” value [2] was ~100000 pM and the Kd [3] was 12.3 pM. For the same binder, the koff [3] was 0.000457 s⁻¹, the kon [3] was 3.84e+07 M⁻¹ s⁻¹ and the Kd [4] was 8.67 pM. The koff [4] was 0.000159 s⁻¹, the kon [4] was 1.84e+07 M⁻¹ s⁻¹ and the Kd [5] was 12 pM. For the same binder, the koff [5] was 0.000539 s⁻¹, the kon [5] was 4.51e+07 M⁻¹ s⁻¹ and the Kd [6] was 28 pM. The koff [6] was 0.000119 s⁻¹, the kon [6] was 4.26e+06 M⁻¹ s⁻¹ and the “RGA IC50” value [7] was 0.11 µg/mL.

B2: C2494 Fab with D101aA (Chothia) substitution in VH (Fab, V domains shown)
VH: EVQLQQSVAELVRPGASVKLSCTASAFNIKDDYMHWVKQRPEQGLEWIGRIDPAIGNTEYAPKFQDKATMTADTSSNTAYLQLSSLTSEDTAVYYCALGDFYAMAYWGQGTSVTVSS
VL: ETTVTQSPASLSVATGEKVTIRCITNTDIDDVIHWYQQKPGEPPKLLISEGNTLRPGVPSRFSSSGYGTDFVFTIENTLSEDVADYYCLQSDNMLTFGAGTKLELK
In the case of B2, the “fold decrease of koff against C2494” value [8] is reported as ~4 fold.

B3: STLM189 (antibody, V domains shown)
VH: QVQLVQSGAEVKKPGASVKVSCKVSAFNIKDDYMHWVRQAPGKGLEWMGRIDPAIGNTEYAPKFQDRVTMTEDTSTDTAYMELSSLRSEDTAVYYCATGDFYAMDYWGQGTLVTVSS
VL: EIVMTQSPATLSVSPGERATLSCITNTDIDDVIHWYQQKPGQAPRLLIYEGNTLRPGIPARFSGSGSGTEFTLTISSLQSEDFAVYYCLQSDNMLTFGQGTKLEIK
notes: C2494 HFA mAb: VH STLH195 + VL STLL278 (L2)
B3: binds [9].

B4: CNTO3914 (antibody, mouse IgG1, V domains shown)
VH: EVQLVESGGGLLQPGRSLKLSCTASGFIFSHYGMAWVRQAPTKGLEWVSSIITDGTSTYYRDSVKGRFTISRDNAKNTQYLQMDSLRSEDTATYYCARQSDDYFDYWGQGVMVTVSS
VL: DVVLTQTPVSLSVTLGDQASISCKSSQSLEYSDGDSYLEWYLQKPGQSPQLLIYGVSNRFSGVPDRFIGSGSGTDFTLKISRVEPEDLGVYYCFQATHDPFTFGSGTKLEIK
notes: Rat hybridoma C1999 V regions cloned into mouse IgG1 background; also called C1999
B4: no binding [10]; binds [11].

B5: C2494 Fab (Fab, V domains shown)
VH: EVQLQQSVAELVRPGASVKLSCTASAFNIKDDYMHWVKQRPEQGLEWIGRIDPAIGNTEYAPKFQDKATMTADTSSNTAYLQLSSLTSEDTAVYYCALGDFYAMDYWGQGTSVTVSS
VL: ETTVTQSPASLSVATGEKVTIRCITNTDIDDVIHWYQQKPGEPPKLLISEGNTLRPGVPSRFSSSGYGTDFVFTIENTLSEDVADYYCLQSDNMLTFGAGTKLELK
Work on B5 yielded a koff [12] of 0.000143 s⁻¹.
